The labels stand for the following.
B1: I2C-14 IgG1 (antibody, V domains shown)
VH: EVQLVESGGGLVQPGGSLRLSCAASGFTFESYDIHWVRQAPGKGLEWVAAIFSYGGYTTYADSVKGRFTISADTSKNTAYLQMNSLRAEDTAVYYCARGSYGDGRGMDYWGQGTLVTVSS
VL: DIQMTQSPSSLSASVGDRVTITCRASQSVSSAVAWYQQKPGKAPKLLIYSASSLYSGVPSRFSGSRSGTDFTLTISSLQPEDFATYYCQQYYYWPGTFGQGTKVEIK
notes: human IgG1
B2: I2C-17 IgG1 (antibody, V domains shown)
VH: EVQLVESGGGLVQPGGSLRLSCAASGFTFSDYFIHWVRQAPGKGLEWVAYIYPASGGTCYADSVKGRFTISADTSKNTAYLQMNSLRAEDTAVYYCARGYIPHMAALDYWGQGTLVTVSS
VL: B1 VL with Y93W
notes: human IgG1
B3: I2A-4 IgG1 (antibody, V domains shown)
VH: EVQLVESGGGLVQPGGSLRLSCAASGFTFYSYDIHWVRQAPGKGLEWVAYISPYWGITTYADSVKGRFTISADTSKNTAYLQMNSLRAEDTAVYYCARYIGSSYWDALDYWGQGTLVTVSS
VL: B1 VL with Y91S, Y92D, Y93S, W94S, P95L, G96V
notes: human IgG1
B4: I2C-15 IgG1 (antibody, V domains shown)
VH: EVQLVESGGGLVQPGGSLRLSCAASGFTFSSYFIHWVRQAPGKGLEWVALIYPDTDDTYYADSVKGRFTISADTSKNTAYLQMNSLRAEDTAVYYCARYGYLGVGAFDYWGQGTLVTVSS
VL: B1 VL with Y91L, Y93W, W94T
notes: human IgG1
B5: I2C-10 IgG1 (antibody, V domains shown)
VH: EVQLVESGGGLVQPGGSLRLSCAASGFTFSSYFIHWVRQAPGKGLEWVATIHSYFDGTSYADSVKGRFTISADTSKNTAYLQMNSLRAEDTAVYYCARTRPTGGAFDYWGQGTLVTVSS
VL: B1 VL with Y91A, Y93W, W94S, G96A
notes: human IgG1
B6: I2C-8 IgG1 (antibody, V domains shown)
VH: EVQLVESGGGLVQPGGSLRLSCAASGFTFSGYFIHWVRQAPGKGLEWVAAIFPYRGGTSYADSVKGRFTISADTSKNTAYLQMNSLRAEDTAVYYCARGGVSPGGFDYWGQGTLVTVSS
VL: B1 VL with Y93L, W94Y
notes: human IgG1; same CDRs as I2A-16; also called 12C-8
B7: I2A-20 IgG1 (antibody, V domains shown)
VH: EVQLVESGGGLVQPGGSLRLSCAASGFTFSDYGIHWVRQAPGKGLEWVAEIDSWLGYTYYADSVKGRFTISADTSKNTAYLQMNSLRAEDTAVYYCARSPYHYLYYGLDYWGQGTLVTVSS
VL: B1 VL with Y91L, Y92S, Y93S, W94S, P95L
notes: human IgG1
B8: I2A-1 IgG1 (antibody, V domains shown)
VH: EVQLVESGGGLVQPGGSLRLSCAASGFTFSSYFIHWVRQAPGKGLEWVAAIYPEGGYTYYADSVKGRFTISADTSKNTAYLQMNSLRAEDTAVYYCARDYKYVGALDYWGQGTLVTVSS
VL: B1 VL with W94F
notes: human IgG1
B9: I2A-6 IgG1 (antibody, V domains shown)
VH: EVQLVESGGGLVQPGGSLRLSCAASGFTFSLYAIHWVRQAPGKGLEWVAEIDSWLGYTYYADSVKGRFTISADTSKNTAYLQMNSLRAEDTAVYYCARRPVTEVYYSALDYWGQGTLVTVSS
VL: B1 VL with Y92D, Y93R, W94S, P95L, G96H
notes: human IgG1
B10: I2A-3 IgG1 (antibody, V domains shown)
VH: EVQLVESGGGLVQPGGSLRLSCAASGFTFTSYEIHWVRQAPGKGLEWVAHIDPYGGYTQYADSVKGRFTISADTSKNTAYLQMNSLRAEDTAVYYCARRGVAVFDYWGQGTLVTVSS
VL: B1 VL with Y91W, Y92A, W94A, G96V
notes: human IgG1
B11: I2A-16 IgG1 (antibody, V domains shown)
VH: B6 VH
VL: B1 VL with Y93L, W94Y
notes: human IgG1
B12: I2A-22 IgG1 (antibody, V domains shown)
VH: EVQLVESGGGLVQPGGSLRLSCAASGFTFSSYFIHWVRQAPGKGLEWVAAIYPSGWYTSYADSVKGRFTISADTSKNTAYLQMNSLRAEDTAVYYCARVQAGVFDYWGQGTLVTVSS
VL: B1 VL with W94Y
notes: human IgG1
B13: I2C-24 IgG1 (antibody, V domains shown)
VH: EVQLVESGGGLVQPGGSLRLSCAASGFTFSRYYIHWVRQAPGKGLEWVADIDSYGGFTYYADSVKGRFTISADTSKNTAYLQMNSLRAEDTAVYYCARAHRFLQGGYVLDYWGQGTLVTVSS
VL: B1 VL with Y92S, Y93W, W94G, P95L, G96W
notes: human IgG1
B14: I2C-12 IgG1 (antibody, V domains shown)
VH: EVQLVESGGGLVQPGGSLRLSCAASGFTFSSYFIHWVRQAPGKGLEWVAAIHPAFSFTYYADSVKGRFTISADTSKNTAYLQMNSLRAEDTAVYYCARPRLSSAVVLDYWGQGTLVTVSS
VL: B1 VL with Y91G, W94F
notes: human IgG1
B15: I2C-4 IgG1 (antibody, V domains shown)
VH: EVQLVESGGGLVQPGGSLRLSCAASGFTFWSYFIHWVRQAPGKGLEWVAYIHPSSSYTDYADSVKGRFTISADTSKNTAYLQMNSLRAEDTAVYYCARTSRDGAMDYWGQGTLVTVSS
VL: B1 VL with Y91W, Y93S, W94P, G96E
notes: human IgG1
B16: I2A-14 IgG1 (antibody, V domains shown)
VH: EVQLVESGGGLVQPGGSLRLSCAASGFTFDSYVIHWVRQAPGKGLEWVAYIFSFGGYTYYADSVKGRFTISADTSKNTAYLQMNSLRAEDTAVYYCARSPYGTFALDYWGQGTLVTVSS
VL: B1 VL with W94T
notes: human IgG1
B17: I2C-16 IgG1 (antibody, V domains shown)
VH: EVQLVESGGGLVQPGGSLRLSCAASGFTFSSYWIHWVRQAPGKGLEWVAAIHPSGSYTYYADSVKGRFTISADTSKNTAYLQMNSLRAEDTAVYYCARVGLLVTSVMDYWGQGTLVTVSS
VL: B1 VL with W94F
notes: human IgG1
B18: I2C-2 IgG1 (antibody, V domains shown)
VH: EVQLVESGGGLVQPGGSLRLSCAASGFTFSDYFIHWVRQAPGKGLEWVAGIYPYSGYTKYADSVKGRFTISADTSKNTAYLQMNSLRAEDTAVYYCARDHSPVLDYWGQGTLVTVSS
VL: B1 VL with Y91W
notes: human IgG1
B19: I2C-11 IgG1 (antibody, V domains shown)
VH: B8 VH with S30G, Y52F, E54A, D99Y, Y100G, K101S, Y102M, V103G, L106F
VL: B1 VL with Y93W, W94F
notes: human IgG1
B20: I2C-1 IgG1 (antibody, V domains shown)
VH: EVQLVESGGGLVQPGGSLRLSCAASGFTFTSYGIHWVRQAPGKGLEWVAAIYPHSGFTSYADSVKGRFTISADTSKNTAYLQMNSLRAEDTAVYYCARTSYRGFDYWGQGTLVTVSS
VL: B1 VL with Y93W, W94Y
notes: human IgG1

Where a chain is given by its changes, count along the chain named. Numbers in names are those of the source.

T1 sequence (Q01973 42-147): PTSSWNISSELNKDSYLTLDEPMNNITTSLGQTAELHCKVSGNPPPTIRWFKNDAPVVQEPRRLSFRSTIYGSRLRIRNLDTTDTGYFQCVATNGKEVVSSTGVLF

The first experiment has as its target T1, ROR1 Ig-like domain (human, UniProt Q01973 42-147).
T1 construct: also called Acro Cat. No. RO1-H5221
Description: BLI, IgG1 on biosensor, soluble ROR1 domain. From the text:
(§1) To measure binding affinity in ROR binder discovery campaigns, the VL and VH domains identified in the phage screen described above were formatted into a bivalent monospecific native human full-length IgG1 architecture and immobilized to a biosensor on an Octet (Pall ForteBio) biolayer interferometer. Soluble ROR antigens, including the extracellular domains of ROR1 (Acro Cat. No. RO1-H522γ) and ROR2 (Acro Cat. No. R02-H52E5), as well as the individual ROR1 Frizzled (Acro Cat. No. RO1-H5222), Ig-like (Acro Cat. No. RO1-H5221), and Kringle (Acro Cat. No. RO1-H5223) domains, were then added to the system and binding measured.
(§2) ROR binding candidates, formatted in the bivalent monospecific native human full-length IgG1 architecture, were further characterized for binding to ROR1 and/or ROR2. […] ROR binding candidates were also characterized for their binding to specific ROR1 domains.
(In general: In BLI a coated tip is dipped into the sample, and binding shifts an interference pattern.)
With B1, the binding result is listed as “binds”.

With B2, the binding result is given as “binds”.

Consider B3, for which the binding result is given as “binds”.

For B4, the binding result is reported as “binds”.

As to B5, the binding result is “binds”.

As to B6, the binding result is “binds”.

As for B7, the binding result was “binds”.

For the molecule B8, the binding result is “binds”.

With B9, the binding result was “binds”.

For B10, the binding result was “binds”.

Turning to B11, the binding result is “binds”.

As for B12, the binding result was “binds”.

For B13, the binding result is “binds”.

Turning to B14, the binding result is given as “binds”.

Consider B15, for which the binding result is listed as “binds”.

Take B16: the binding result is “binds”.

On to B17, for which the binding result is “binds”.

Turning to B18, the binding result was “binds”.

On to B19, for which the binding result is listed as “binds”.

Consider B20, for which the binding result was “binds”.

Another experiment deals with T2, extracellular domain of human ROR2 (human, UniProt Q01974 34-403).
T2 construct: bought protein; biotinylated in the bivalent assay format; also called Acro Cat. No. RO2-H52E5
T2 sequence (Q01974 34-403 limits assumed): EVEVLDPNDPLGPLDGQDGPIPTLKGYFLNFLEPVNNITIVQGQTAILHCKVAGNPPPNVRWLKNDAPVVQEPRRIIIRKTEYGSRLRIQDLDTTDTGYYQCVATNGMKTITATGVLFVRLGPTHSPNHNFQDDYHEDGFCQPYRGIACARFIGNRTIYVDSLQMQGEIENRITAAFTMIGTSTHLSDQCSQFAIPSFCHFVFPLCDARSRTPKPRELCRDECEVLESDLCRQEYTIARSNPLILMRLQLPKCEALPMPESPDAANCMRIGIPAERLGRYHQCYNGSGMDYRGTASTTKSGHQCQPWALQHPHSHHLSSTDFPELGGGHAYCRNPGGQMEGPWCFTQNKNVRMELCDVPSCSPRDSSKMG
Description: BLI, IgG1 on biosensor, soluble ROR ectodomain.
Text: as §1, §2
Take B1: the binding result is “binds”.

B2: the binding result is “binds”.

Consider B3, for which the binding result was “no binding”.

With B4, the binding result is given as “binds”.

On to B5, for which the binding result is “binds”.

With B6, the binding result is on record as “binds”.

As for B7, the binding result was “no binding”.

On to B8, for which the binding result is listed as “binds”.

As to B9, the binding result is given as “no binding”.

Turning to B10, the binding result is “no binding”.

Regarding B11, the binding result was “binds”.

For the molecule B12, the binding result was “binds”.

As for B13, the binding result is on record as “binds”.

For B14, the binding result is listed as “binds”.

B15: the binding result is recorded as “binds”.

Turning to B16, the binding result is recorded as “binds”.

Consider B17, for which the binding result is “binds”.

For B18, the binding result was “binds”.

On to B19, for which the binding result was “binds”.

B20: the binding result is “binds”.

In another experiment the target is T3, extracellular domain of human ROR1 (human, UniProt Q01973 30-406).
T3 construct: bought protein; biotinylated in the bivalent assay format; also called Acro Cat. No. RO1-H522y
T3 sequence (Q01973 30-406 limits assumed): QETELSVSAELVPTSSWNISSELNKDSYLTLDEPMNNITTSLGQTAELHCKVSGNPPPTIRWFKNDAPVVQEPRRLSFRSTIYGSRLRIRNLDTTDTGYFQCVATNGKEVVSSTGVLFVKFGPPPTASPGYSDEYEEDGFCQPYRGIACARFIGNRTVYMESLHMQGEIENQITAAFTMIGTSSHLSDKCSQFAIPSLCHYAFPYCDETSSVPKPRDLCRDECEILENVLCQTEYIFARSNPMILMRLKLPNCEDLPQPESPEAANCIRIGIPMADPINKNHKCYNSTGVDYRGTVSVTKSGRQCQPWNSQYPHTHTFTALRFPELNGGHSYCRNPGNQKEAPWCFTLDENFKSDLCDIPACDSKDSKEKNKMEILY
Description: BLI, IgG1 on biosensor, soluble ROR ectodomain.
Text: as §1, §2
Take B1: the binding result is given as “binds”.

Turning to B2, the binding result was “binds”.

With B3, the binding result is reported as “binds”.

With B4, the binding result was “binds”.

Regarding B5, the binding result is on record as “binds”.

For B6, the binding result is on record as “binds”.

As for B7, the binding result was “binds”.

With B8, the binding result is listed as “binds”.

For the molecule B9, the binding result was “binds”.

For the molecule B10, the binding result is “binds”.

As to B11, the binding result was “binds”.

For the molecule B12, the binding result is recorded as “binds”.

For B13, the binding result was “binds”.

Regarding B14, the binding result is on record as “binds”.

As to B15, the binding result was “binds”.

B16: the binding result is reported as “binds”.

Regarding B17, the binding result is reported as “binds”.

Consider B18, for which the binding result is “binds”.

Turning to B19, the binding result was “binds”.

B20: the binding result is reported as “binds”.
